One data set concerns the target T1, Full-length human IKK2 (human, UniProt O14920 1-756).
T1 sequence (looked up): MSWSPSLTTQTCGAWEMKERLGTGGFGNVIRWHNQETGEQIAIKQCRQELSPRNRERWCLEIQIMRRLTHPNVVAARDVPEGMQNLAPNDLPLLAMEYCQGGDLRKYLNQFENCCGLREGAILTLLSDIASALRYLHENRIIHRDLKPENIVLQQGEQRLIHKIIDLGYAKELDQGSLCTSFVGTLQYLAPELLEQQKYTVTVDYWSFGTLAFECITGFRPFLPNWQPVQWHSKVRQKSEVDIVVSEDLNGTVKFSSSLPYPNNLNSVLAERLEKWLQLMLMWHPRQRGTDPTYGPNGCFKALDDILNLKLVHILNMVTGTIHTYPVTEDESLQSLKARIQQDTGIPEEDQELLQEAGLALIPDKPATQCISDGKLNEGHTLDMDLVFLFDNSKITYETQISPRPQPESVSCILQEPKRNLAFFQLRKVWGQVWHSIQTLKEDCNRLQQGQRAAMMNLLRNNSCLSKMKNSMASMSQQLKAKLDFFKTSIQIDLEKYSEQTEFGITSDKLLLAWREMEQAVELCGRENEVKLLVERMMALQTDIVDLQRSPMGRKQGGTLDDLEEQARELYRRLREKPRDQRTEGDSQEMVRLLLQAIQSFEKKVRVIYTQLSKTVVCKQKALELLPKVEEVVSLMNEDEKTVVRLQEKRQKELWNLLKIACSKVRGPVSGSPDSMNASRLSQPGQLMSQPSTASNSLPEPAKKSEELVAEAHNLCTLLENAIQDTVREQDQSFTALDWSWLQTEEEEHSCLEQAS
As to the kind of experiment: SEC-MALS. (In gel filtration, larger molecules generally elute earlier.)

The data set “SEC-MALS” concerns the molecule itself. As to the kind of experiment: SEC-MALS.

B1: NEMO^1–280 (domain or fragment, human, UniProt Q9Y6K9 1-280, looked up)
chain: MNRHLWKSQLCEMVQPSGGPAADQDVLGEESPLGKPAMLHLPSEQGAPETLQRCLEENQELRDAIRQSNQILRERCEELLHFQASQREEKEFLMCKFQEARKLVERLGLEKLDLKRQKEQALREVEHLKRCQQQMAEDKASVKAQVTSLLGELQESQSRLEAATKECQALEGRARAASEQARQLESEREALQQQHSVQVDQLRMQGQSVEAALRMERQAASEEKRKLAQLQVAYHQLFQEYDNHIKSSVVGSERKRGMQLEDLKQQLQQAEEALVAKQEV
As to B1, the binding result in the data set with Full-length human IKK2 and in “SEC-MALS” was “binds” each time.

B2: NEMO^111–250 (domain or fragment, human, UniProt Q9Y6K9 111-250, looked up)
chain: KLDLKRQKEQALREVEHLKRCQQQMAEDKASVKAQVTSLLGELQESQSRLEAATKECQALEGRARAASEQARQLESEREALQQQHSVQVDQLRMQGQSVEAALRMERQAASEEKRKLAQLQVAYHQLFQEYDNHIKSSVV
As a reminder, the stoichiometry N is the number of molecules, sites or subunits per partner or assembly. Consider B2, for which the “stoichiometry N” value in the data set “SEC-MALS” is 2.

B3: NEMO^1–130 (domain or fragment, human, UniProt Q9Y6K9 1-130, looked up)
chain: MNRHLWKSQLCEMVQPSGGPAADQDVLGEESPLGKPAMLHLPSEQGAPETLQRCLEENQELRDAIRQSNQILRERCEELLHFQASQREEKEFLMCKFQEARKLVERLGLEKLDLKRQKEQALREVEHLKR
Turning to B3, in the data set with Full-length human IKK2, the binding result is “binds”. Moreover, the “stoichiometry N” value in “SEC-MALS” was determined as 2.

B4: NEMO^1–210 (domain or fragment, human, UniProt Q9Y6K9 1-210, looked up)
chain: MNRHLWKSQLCEMVQPSGGPAADQDVLGEESPLGKPAMLHLPSEQGAPETLQRCLEENQELRDAIRQSNQILRERCEELLHFQASQREEKEFLMCKFQEARKLVERLGLEKLDLKRQKEQALREVEHLKRCQQQMAEDKASVKAQVTSLLGELQESQSRLEAATKECQALEGRARAASEQARQLESEREALQQQHSVQVDQLRMQGQSVE
Take B4: the binding result with Full-length human IKK2 and in the data set “SEC-MALS” was “binds” throughout.

B5: NEMO^1–110 (domain or fragment, human, UniProt Q9Y6K9 1-110, looked up)
chain: MNRHLWKSQLCEMVQPSGGPAADQDVLGEESPLGKPAMLHLPSEQGAPETLQRCLEENQELRDAIRQSNQILRERCEELLHFQASQREEKEFLMCKFQEARKLVERLGLE
With B5, the “stoichiometry N” value in the data set “SEC-MALS” was determined as 2.

B6: NEMO^250–365 (domain or fragment, human, UniProt Q9Y6K9 250-365, looked up)
chain: VGSERKRGMQLEDLKQQLQQAEEALVAKQEVIDKLKEEAEQHKIVMETVPVLKAQADIYKADFQAERQAREKLAEKKELLQEQLEQLQREYSKLKASCQESARIEDMRKRHVEVSQ
On to B6, for which the “stoichiometry N” value in the data set “SEC-MALS” amounted to 2.

B7: NEMO^1–250 (domain or fragment, human, UniProt Q9Y6K9 1-250, looked up)
chain: MNRHLWKSQLCEMVQPSGGPAADQDVLGEESPLGKPAMLHLPSEQGAPETLQRCLEENQELRDAIRQSNQILRERCEELLHFQASQREEKEFLMCKFQEARKLVERLGLEKLDLKRQKEQALREVEHLKRCQQQMAEDKASVKAQVTSLLGELQESQSRLEAATKECQALEGRARAASEQARQLESEREALQQQHSVQVDQLRMQGQSVEAALRMERQAASEEKRKLAQLQVAYHQLFQEYDNHIKSSVV
With B7, the binding result with Full-length human IKK2 is reported as “binds”. In the data set “SEC-MALS”, the “stoichiometry N” value was 2.
